Patent publication US20080044360A1 (COLLAGEN MEDICAL, published 2008)
Bridge positions count the residues as written; N and C are the ends. Square brackets hold non-standard residues; d marks the D form. Primed or numbered codes have the meaning given here. Side chains are listed from the residue outwards. Ends that are not written are not given here. * marks the point of attachment. Tyr(3-Cl) = N[C@@H](Cc1ccc(O)c(Cl)c1)C(=O)O; Phe(4-NH2) = Nc1ccc(C[C@H](N)C(=O)O)cc1; Phe(4-F) = N[C@@H](Cc1ccc(F)cc1)C(=O)O; hTyr = N[C@@H](CCc1ccc(O)cc1)C(=O)O; 1,4 AMB(Gd^T) = not defined here; Gd^T = not defined here; Gd^T″ = GdDTPA-thiourea; Cbz = O=C(OCc1ccccc1)*

Tests used:
[1] = target: T1, human collagen type I, acid soluble, extracted from placenta (Sigma C7774) (human, UniProt P02452 162-1218; P08123 80-1119); assay: dried collagen assay
T1 construct: tissue extract, gelled and dried in wells; also called dried human collagen; h-Collagen
T1 sequence (P02452 162-1218 limits assumed, chain 1 of 2): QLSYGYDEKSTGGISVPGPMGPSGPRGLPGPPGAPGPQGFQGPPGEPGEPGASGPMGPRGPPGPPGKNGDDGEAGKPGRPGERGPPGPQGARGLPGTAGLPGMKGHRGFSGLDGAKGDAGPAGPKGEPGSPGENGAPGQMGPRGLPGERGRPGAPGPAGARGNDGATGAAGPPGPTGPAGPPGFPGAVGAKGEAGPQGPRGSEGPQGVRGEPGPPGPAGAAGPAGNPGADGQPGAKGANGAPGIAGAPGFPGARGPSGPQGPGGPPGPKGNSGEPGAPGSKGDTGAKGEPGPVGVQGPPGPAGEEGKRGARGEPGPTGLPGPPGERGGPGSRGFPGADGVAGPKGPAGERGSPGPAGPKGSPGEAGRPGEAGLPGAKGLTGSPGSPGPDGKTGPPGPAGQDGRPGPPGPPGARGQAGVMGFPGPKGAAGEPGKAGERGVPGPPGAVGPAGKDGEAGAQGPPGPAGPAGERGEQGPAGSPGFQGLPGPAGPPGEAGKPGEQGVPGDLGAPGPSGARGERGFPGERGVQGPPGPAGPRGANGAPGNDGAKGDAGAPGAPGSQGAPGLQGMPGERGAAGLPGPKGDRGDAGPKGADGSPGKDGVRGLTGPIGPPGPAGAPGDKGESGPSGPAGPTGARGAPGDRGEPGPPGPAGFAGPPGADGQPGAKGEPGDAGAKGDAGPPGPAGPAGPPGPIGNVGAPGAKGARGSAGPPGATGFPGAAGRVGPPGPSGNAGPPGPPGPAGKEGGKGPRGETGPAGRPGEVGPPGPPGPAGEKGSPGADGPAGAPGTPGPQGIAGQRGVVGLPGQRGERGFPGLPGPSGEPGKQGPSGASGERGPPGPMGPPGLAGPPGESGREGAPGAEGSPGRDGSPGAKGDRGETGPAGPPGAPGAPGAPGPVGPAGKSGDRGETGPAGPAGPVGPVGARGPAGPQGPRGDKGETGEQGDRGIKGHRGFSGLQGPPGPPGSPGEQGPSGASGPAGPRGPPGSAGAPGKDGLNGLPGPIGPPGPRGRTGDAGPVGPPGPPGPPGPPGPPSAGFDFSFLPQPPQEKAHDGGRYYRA
T1 sequence (P08123 80-1119 limits assumed, chain 2 of 2): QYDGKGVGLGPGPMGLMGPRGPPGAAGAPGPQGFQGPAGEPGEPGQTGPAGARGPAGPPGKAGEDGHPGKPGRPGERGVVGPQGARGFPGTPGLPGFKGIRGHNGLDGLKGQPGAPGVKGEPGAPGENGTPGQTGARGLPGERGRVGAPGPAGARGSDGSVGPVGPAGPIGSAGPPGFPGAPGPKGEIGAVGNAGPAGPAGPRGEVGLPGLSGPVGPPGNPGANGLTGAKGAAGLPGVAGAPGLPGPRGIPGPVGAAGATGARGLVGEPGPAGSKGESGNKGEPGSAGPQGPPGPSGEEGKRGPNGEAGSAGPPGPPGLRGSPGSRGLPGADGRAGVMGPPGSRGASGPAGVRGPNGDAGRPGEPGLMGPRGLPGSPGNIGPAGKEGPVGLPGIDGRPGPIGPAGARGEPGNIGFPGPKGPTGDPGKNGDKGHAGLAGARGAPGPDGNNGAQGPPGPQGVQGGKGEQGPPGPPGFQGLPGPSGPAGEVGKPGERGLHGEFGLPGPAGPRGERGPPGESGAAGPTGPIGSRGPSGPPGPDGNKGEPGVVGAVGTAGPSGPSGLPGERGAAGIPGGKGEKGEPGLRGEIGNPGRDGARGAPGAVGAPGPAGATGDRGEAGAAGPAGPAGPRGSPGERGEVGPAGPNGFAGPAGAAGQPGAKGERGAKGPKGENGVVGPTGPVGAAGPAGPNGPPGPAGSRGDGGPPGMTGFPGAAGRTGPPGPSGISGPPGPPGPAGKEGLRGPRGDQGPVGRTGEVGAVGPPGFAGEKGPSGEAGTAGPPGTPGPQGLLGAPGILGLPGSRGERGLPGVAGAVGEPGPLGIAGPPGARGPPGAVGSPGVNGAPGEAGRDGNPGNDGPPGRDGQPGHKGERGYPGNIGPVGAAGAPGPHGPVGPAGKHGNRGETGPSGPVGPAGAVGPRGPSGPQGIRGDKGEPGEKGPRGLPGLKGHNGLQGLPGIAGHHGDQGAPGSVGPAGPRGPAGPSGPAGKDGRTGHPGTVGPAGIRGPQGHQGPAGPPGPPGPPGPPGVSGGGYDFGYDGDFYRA

[2] = target: T2, rat collagen, acid soluble, type I, rat tail (Upstate 08-115) (rat, UniProt P02454 152-1207; P02466 86-1125); assay: dried collagen assay
T2 construct: tissue extract, gelled and dried in wells; also called dried rat collagen
T2 sequence (P02454 152-1207, chain 1 of 2): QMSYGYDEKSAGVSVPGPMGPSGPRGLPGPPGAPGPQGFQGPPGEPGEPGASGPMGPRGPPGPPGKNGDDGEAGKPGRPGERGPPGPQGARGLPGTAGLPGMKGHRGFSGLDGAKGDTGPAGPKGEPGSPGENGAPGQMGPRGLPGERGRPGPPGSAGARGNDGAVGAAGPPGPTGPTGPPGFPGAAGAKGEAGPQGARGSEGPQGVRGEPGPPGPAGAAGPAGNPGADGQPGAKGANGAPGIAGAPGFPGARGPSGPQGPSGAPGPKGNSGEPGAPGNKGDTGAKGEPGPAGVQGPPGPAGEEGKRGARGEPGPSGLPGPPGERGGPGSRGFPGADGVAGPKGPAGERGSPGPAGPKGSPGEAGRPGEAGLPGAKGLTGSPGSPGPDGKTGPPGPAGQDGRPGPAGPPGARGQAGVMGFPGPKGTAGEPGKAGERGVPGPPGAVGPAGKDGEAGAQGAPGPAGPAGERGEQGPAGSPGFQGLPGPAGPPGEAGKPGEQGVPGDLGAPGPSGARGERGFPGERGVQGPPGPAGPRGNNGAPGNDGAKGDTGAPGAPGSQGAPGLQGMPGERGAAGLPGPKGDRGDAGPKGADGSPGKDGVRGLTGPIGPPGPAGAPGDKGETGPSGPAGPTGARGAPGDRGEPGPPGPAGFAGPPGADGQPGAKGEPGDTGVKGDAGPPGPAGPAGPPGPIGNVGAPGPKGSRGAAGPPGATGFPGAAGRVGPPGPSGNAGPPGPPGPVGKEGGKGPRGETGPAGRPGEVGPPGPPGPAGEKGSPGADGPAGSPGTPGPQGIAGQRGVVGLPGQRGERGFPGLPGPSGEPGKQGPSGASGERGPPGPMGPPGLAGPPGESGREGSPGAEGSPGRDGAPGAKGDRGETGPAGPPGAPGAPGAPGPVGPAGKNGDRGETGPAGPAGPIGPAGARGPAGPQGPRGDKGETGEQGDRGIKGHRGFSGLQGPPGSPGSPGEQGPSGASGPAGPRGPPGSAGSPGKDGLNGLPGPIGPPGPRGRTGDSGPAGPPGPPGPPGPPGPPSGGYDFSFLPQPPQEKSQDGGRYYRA
T2 sequence (P02466 86-1125, chain 2 of 2): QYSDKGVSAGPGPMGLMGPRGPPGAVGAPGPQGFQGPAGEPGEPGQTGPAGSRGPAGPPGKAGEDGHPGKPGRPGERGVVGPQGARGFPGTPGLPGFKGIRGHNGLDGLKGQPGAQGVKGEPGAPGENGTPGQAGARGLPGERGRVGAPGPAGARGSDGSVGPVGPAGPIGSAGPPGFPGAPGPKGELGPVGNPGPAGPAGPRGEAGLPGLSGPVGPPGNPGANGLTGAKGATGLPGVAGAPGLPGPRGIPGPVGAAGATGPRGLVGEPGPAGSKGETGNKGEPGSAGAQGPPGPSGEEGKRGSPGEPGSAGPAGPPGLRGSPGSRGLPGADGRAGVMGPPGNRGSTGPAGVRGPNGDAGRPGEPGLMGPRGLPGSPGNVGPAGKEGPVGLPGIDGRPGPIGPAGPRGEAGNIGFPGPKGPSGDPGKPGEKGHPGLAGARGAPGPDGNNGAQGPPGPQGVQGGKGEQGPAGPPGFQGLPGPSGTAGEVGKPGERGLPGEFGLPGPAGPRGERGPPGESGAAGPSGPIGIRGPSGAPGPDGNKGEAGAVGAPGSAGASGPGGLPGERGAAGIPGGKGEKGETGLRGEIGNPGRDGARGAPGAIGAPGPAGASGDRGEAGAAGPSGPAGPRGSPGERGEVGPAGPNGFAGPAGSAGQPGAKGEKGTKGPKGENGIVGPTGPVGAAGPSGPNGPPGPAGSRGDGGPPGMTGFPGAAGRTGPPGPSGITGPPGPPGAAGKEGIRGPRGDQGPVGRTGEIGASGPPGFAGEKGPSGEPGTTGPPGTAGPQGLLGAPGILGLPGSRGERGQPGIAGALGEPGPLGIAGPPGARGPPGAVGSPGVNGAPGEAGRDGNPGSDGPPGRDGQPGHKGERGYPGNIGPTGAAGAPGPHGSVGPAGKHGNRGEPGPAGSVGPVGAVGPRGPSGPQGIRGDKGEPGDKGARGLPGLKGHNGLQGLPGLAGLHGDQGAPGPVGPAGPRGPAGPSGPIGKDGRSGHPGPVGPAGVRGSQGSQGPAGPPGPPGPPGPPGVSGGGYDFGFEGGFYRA

% bound [1]	% bound [2]	Binder
48%	48%	{Gd^T″}-GQWHCTTYFPHHYCLYG-{1,4 AMB(Gd^T)} (disulfide 5-14 (inferred); reading uncertain) [Compound ID 816]
30%	17%	{Gd^T}-GQWHCTTRFPAHYCLYG (disulfide 5-14 (inferred); not fully specified (C-terminus); reading uncertain) [Compound ID 865]
27%	34%	{Gd^T″}-GQWHCTT[Phe(4-F)]FPHHYCLYG (disulfide 5-14 (inferred)) [Compound ID 929]
47%	38%	{Gd^T}-GQWHCTTRYPHHYCLYG (disulfide 5-14 (inferred); not fully specified (C-terminus); reading uncertain) [Compound ID 859]
13%	0%	{Gd^T″}-GDWHCTTLFPHH[dY]CLYG (disulfide 5-14 (inferred); not fully specified (C-terminus)) [Compound ID 910]
27%	15%	{Gd^T}-GQWHCTTRFPHHYCAYG (disulfide 5-14 (inferred); not fully specified (C-terminus); reading uncertain) [Compound ID 855]
50%	41%	{Gd^T}-GQWHCTTDFPHHYCLYG (disulfide 5-14 (inferred); not fully specified (C-terminus); reading uncertain) [Compound ID 851]
65%	55%	{Gd^T″}-GQWHCTTK(Gd^T″)FPHHYCLYG (disulfide 5-14 (inferred); not fully specified (C-terminus)) [Compound ID 813]
81%	77%	{Gd^T″}-K(Gd^T″)K(Gd^T″)WHCYTYFPHHYCVYG (disulfide 5-14 (inferred); not fully specified (C-terminus)) [Compound ID 801]
28%	10%	{Gd^T″}-GQWHCTTLFPNHYCLYG (disulfide 5-14 (inferred)) [Compound ID 923]
24%	1%	{Gd^T″}-GQWHCTTLFPHNYCLYG (disulfide 5-14 (inferred)) [Compound ID 924]
30%	0%	{Gd^T″}-GQWHCTTRFPSHYCLYG (disulfide 5-14 (inferred)) [Compound ID 880]
68%	58%	{Gd^T″}-GQWNCTTLFPHHYCLYG (disulfide 5-14 (inferred)) [Compound ID 922]
38%	15%	{Gd^T″}-GQWHCTTDFPHHYCLFG (disulfide 5-14 (inferred)) [Compound ID 890]
58%	41%	{Gd^T″}-GQWHCATRFPHHYCLYG (disulfide 5-14 (inferred)) [Compound ID 877]
63%	56%	{Gd^T″}-GQWHCTTDFPHHYCL[Tyr(3-Cl)]G (disulfide 5-14 (inferred)) [Compound ID 892]
12%	0%	{Gd^T″}-GQWHCTTIFPHH[dY]CLYG (disulfide 5-14 (inferred); not fully specified (C-terminus)) [Compound ID 917]
64%	63%	{Gd^T″}-GQWHCTTLFPHHYCIYG (disulfide 5-14 (inferred)) [Compound ID 927]
15%	0%	{Gd^T″}-GSWHCTTLFPHH[dY]CLYG (disulfide 5-14 (inferred); not fully specified (C-terminus)) [Compound ID 911]
81%	87%	Cbz-GQWHCTTK(Gd^T″)FPHHYCLYG (disulfide 5-14 (inferred)) [Compound ID 926]

% bound [1]	% bound [2]	Binder
67%	91%	GQWHCYTLFPHHYCLYG (disulfide 5-14 (inferred); not fully specified (N-terminus)) [Compound ID 920]
48%	26%	{Gd^T″}-GQWACTTRFPHHYCLYG (disulfide 5-14 (inferred)) [Compound ID 876]
15%	0%	{Gd^T″}-GAWHCTTYFPHH[dY]CLYG (disulfide 5-14 (inferred); not fully specified (C-terminus)) [Compound ID 915]
20%	14%	{Gd^T″}-GQWHCT[dY]RFPHHYCLYG (disulfide 5-14 (inferred); not fully specified (C-terminus)) [Compound ID 899]
66%	57%	{Gd^T}-GQWHCTTAFPHHYCLYG (disulfide 5-14 (inferred); not fully specified (C-terminus); reading uncertain) [Compound ID 853]
21%	14%	{Gd^T″}-GQWHCTTRFPHH[hTyr(Me)]CLYG (disulfide 5-14 (inferred)) [Compound ID 934]
67%	69%	{Gd^T}-GAWHCTTRFPHHYCLYG (disulfide 5-14 (inferred); not fully specified (C-terminus); reading uncertain) [Compound ID 857]
30%	28%	{Gd^T″}-GQWSCTTRFPHHYCLYG (disulfide 5-14 (inferred)) [Compound ID 870]
64%	50%	{Gd^T}-GQWHCTTRFPHH[dY]CLYG (disulfide 5-14 (inferred); not fully specified (C-terminus); reading uncertain) [Compound ID 864]
73%	80%	{Gd^T″}-GQWHCTTLFPHHYCVYG (disulfide 5-14 (inferred)) [Compound ID 928]
60%	38%	{Gd^T}-G[dQ]WHCTTRFPHHYCLYG (disulfide 5-14 (inferred); not fully specified (C-terminus); reading uncertain) [Compound ID 866]
33%	0%	{Gd^T″}-GQWHCT[dT]RFPHHYCLYG (disulfide 5-14 (inferred)) [Compound ID 879]
20%	0%	{Gd^T″}-GAWHCTTLFPHH[dY]CLYG (disulfide 5-14 (inferred); not fully specified (C-terminus)) [Compound ID 908]
70%	83%	{Gd^T″}-GQWHCTTRFPHHYCFYG (disulfide 5-14 (inferred)) [Compound ID 931]
31%	42%	{Gd^T″}-GK([Gly-Gd^T″])WHCTTLFPHHYCLYG (disulfide 5-14 (inferred)) [Compound ID 930]
66%	59%	{Gd^T″}-GQWHCTTRFPHHYCK(Gd^T″)YG (disulfide 5-14 (inferred); not fully specified (C-terminus)) [Compound ID 815]
36%	24%	{Gd^T″}-GQWHCTTRFPHH[hTyr]CLYG (disulfide 5-14 (inferred)) [Compound ID 933]
68%	35%	{Gd^T″}-GQWHCTYLFPHHYCLYG (disulfide 5-14 (inferred)) [Compound ID 921]
24%	15%	{Gd^T″}-GQWHCTTD[Phe(4-NH2)]PHHYCLYG (disulfide 5-14 (inferred)) [Compound ID 884]
